Ends that are not written are not given here.

The record followed here is US7326418B2, “Identification of novel factors that block programmed cell death or apoptosis by targeting JNK” (University of Chicago, priority 2001, dated 2008).

The target in series [1] is T1, GST-MKK7 (Homo sapiens, UniProt O14733, Q133P/Q94H).
T1 construct: made in house; host or cells: E. coli BL21
T1 sequence (O14733 1-401 Q94H/Q133P limits assumed): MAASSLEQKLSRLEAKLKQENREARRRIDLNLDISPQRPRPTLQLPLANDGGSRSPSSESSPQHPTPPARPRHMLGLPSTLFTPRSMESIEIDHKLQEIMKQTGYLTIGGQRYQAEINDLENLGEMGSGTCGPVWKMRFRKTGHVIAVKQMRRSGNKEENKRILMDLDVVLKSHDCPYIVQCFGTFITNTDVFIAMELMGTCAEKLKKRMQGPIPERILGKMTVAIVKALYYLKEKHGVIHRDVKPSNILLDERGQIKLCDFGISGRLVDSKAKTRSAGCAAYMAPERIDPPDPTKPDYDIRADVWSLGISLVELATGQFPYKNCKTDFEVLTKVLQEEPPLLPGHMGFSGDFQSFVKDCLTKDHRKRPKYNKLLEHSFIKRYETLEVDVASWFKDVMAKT
Briefly: GST pull-down, GST-MKK7-coated beads with in vitro-translated Gadd45β products. The format is binding. As to the method:
GST pull-down assays were performed using GST- or GST-MKK7-coated beads and in vitro-translated, Gadd45β products corresponding to the polypeptidic fragments indicated in FIG. 36A.
To generate Gadd45β polypeptides, in vitro reactions were primed with pBS-GFP-Gadd450 plasmids, encoding green fluorescent protein (GFP) directly fused to FL or truncated Gadd45β. To obtain these plasmids, pBS-Gadd45β(FL), pBS-Gadd45β (41-160), pBS-Gadd45 (60-160), pBS-Gadd45β (69-160), pBS-Gadd45β (87-160), and pBS-Gadd45β (113-160)—encoding the corresponding amino acid residues of murine Gadd45β were generated—by cloning appropriate gadd45β cDNA fragments into the XhoI and HindIII sites of pBS SK−. These plasmids, encoding either FL or truncated Gadd45β, were then opened with KpnI and XhoI, and the excised DNA fragments were replaced with the KpnI-BsrGI fragment of pEGFP-N1 (Clontech; containing the GFP-coding sequence) directly joined to the following oligonucleotide linker: 5′-[…]-3′ (SEQ ID NO: 48). These constructs were designated as pBS-GFP-Gadd45β. Gadd45β C-terminal deletions were obtained as described for the JNKK2 deletions by using pBS-GFP-Gadd45β(FL) that had been digested with the NgoMI, SphI, or EcoRV restriction enzymes to direct protein synthesis in vitro. These plasmids encoded the 1-134, 1-95, and 1-68 amino acid fragments of Gadd45β, respectively. […]

Series [2] relates to gadd45β−/− MEFs. Briefly: Apoptosis assay with TAT peptides, Gadd45β null MEFs. The format is cell-based, mouse. The following applies: HIV-TAT-fused peptides; MEFs at passage 4. An excerpt: (§1) A-B, Apoptosis assays showing that peptide 1 effectively promotes killing by TNFα in IκBαM-Gadd45β and Neo 3DO clones, respectively. C-D, Apoptosis assays showing that both peptide 1 and peptide 2 can facilitate TNFα-induced cytotoxicity in wild-type MEFs, and that only peptide 2 promotes this killing in Gadd45β null MEFs, respectively. (C-D), MEFs were from twin embryos and were used at passage (p)4. A-D, Values (expressed as arbitrary units) were obtained by subtracting background values with untreated cells from values with TNFα-treated cells, and represent the mean (+/−standard deviation) of three experiments.
(§2) Treatments were as follows: murine TNFα (Peprotech), 1,000 U/ml, 10 U/ml, or 1,000 U/ml plus 0.3 μg/ml cycloheximide (CHX; FIG. 33); human TNFα (Peprotech), 2,000 U/ml; PMA plus ionomycin (Sigma), 100 ng/ml and 1 μM, respectively. Treatments with H2O2 and sorbitol were as described previously. In FIG. 33, pre-treatment with HIV-TAT peptides (5 μM) or DMSO was for 30 minutes and incubation with TNFα was for an additional 4 and 3.5 hours, respectively. In FIG. 33, peptides were used at 10 μM and incubation with TNFα was for 4 hours. Apoptosis was measured by using the Cell Death Detection ELISA PLUS kit (Roche). […]

Series [3] deals with T2, GST-Gadd45β (Mus musculus, UniProt P22339).
T2 construct: Murine and human, full-length Gadd45J3 proteins were purified from E. coli as GST-Gadd45β and His6-tagged Gadd45β; made in house; host or cells: E. coli BL21 (pGEX-3X)
T2 sequence (P22339 1-160): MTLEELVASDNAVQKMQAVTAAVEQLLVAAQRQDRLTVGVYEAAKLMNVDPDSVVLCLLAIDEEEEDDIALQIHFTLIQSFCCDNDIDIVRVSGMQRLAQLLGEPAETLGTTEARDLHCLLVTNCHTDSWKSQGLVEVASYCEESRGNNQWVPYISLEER
Briefly: GST pull-down of in vitro translated MKK7 peptides with GST-Gadd45β. The format is binding, murine. As to conditions: fused to eGFP.

The subject of series [4] is wild-type MEFs. The series is described as follows: Apoptosis assay with TAT peptides, wild-type MEFs. The following applies: HIV-TAT-fused peptides; MEFs at passage 4. Type of series: cell-based, mouse.
From the text: as §1, §2

The target of series [5] is T3, MKK7 inhibition by Gadd45β (Mus musculus, UniProt P22339).
T3 construct: Murine and human, full-length Gadd45J3 proteins were purified from E. coli as GST-Gadd45β and His6-tagged Gadd45β; made in house; host or cells: GST-Gadd45β from E. coli; FLAG-MKK7 immunoprecipitated from transfected, TNFα-treated 293 cells
T3 sequence (P22339 1-160): T2 sequence (P22339 1-160)
Briefly: MKK7 kinase assay: peptide interference with MKK7 inhibition by Gadd45β. As to conditions: GST-Gadd45β pre-incubated with peptides 20 min; FLAG-MKK7 from TNFα-treated 293 cells. Type of series: biochemical. As for the experimental part: (§3) FLAG-MKK7 was immunoprecipitated from TNFα-treated (10 minutes) 293 cells. b, c, are apoptosis assays showing that peptide 1 promotes killing by TNFα in IκBαM-Gadd45β and Neo clones, respectively. Values (expressed as arbitrary units) were obtained by subtracting background values with untreated cells from values with TNFα-treated cells, and represent the mean (+/−standard deviation) of three experiments.
To define interaction regions and determine whether they are sufficient for binding, Gadd45β association with overlapping peptides spanning these regions (FIG. 29e) was determined. […] This is reminiscent of the mechanism by which p27^KIP1 inhibits cyclin-dependent kinase (CDK)2. A question explored was whether MKK7, Gadd45β-binding peptides interfered with the Gadd45β ability to suppress kinase activity.
GST precipitations with in vitro-translated proteins or purified proteins (FIG. 26-30), and kinase assays were performed. […] MKK7 phosphorylation was monitored by performing immunoprecipitations with anti-P-MKK7 antibodies (developed at Cell Signaling) followed by Western blots with anti-total MKK7 antibodies. […]

Series [6] relates to IκBαM-Gadd45β 3DO cells. Briefly: Apoptosis assay (Cell Death Detection ELISA) with TAT peptides, IκBαM-Gadd45β 3DO clones. The following applies: for TNFα-induced killing of IκBαM-Gadd45β cells: HIV-TAT-fused peptides 5 μM, 30 min pre-treatment, then TNFα. (In general: An ELISA detects its analyte on a solid surface through an enzyme-linked reagent.)
Procedure: Treatments were as follows: murine TNFα (Peprotech), 1,000 U/ml (FIG. 27) or 10 U/ml (FIG. 30); human TNFα (Peprotech), 2,000 U/ml; PMA plus ionomycin (Sigma), 100 ng/ml and 1 μM, respectively. In FIG. 30, pre-treatment with HIV-TAT peptides (5 μM) or DMSO was for 30 minutes and incubation with TNFα was for an additional 7 and 3.5 hours, respectively. Apoptosis was measured by using the Cell Death Detection ELISA^PLUS kit (Roche).
Treatments were as follows: murine TNFα (Peprotech), 1,000 U/ml, 10 U/ml, or 1,000 U/ml plus 0.3 μg/ml cycloheximide (CHX; FIG. 33); human TNFα (Peprotech), 2,000 U/ml; PMA plus ionomycin (Sigma), 100 ng/ml and 1 μM, respectively. […] In FIG. 33, pre-treatment with HIV-TAT peptides (5 μM) or DMSO was for 30 minutes and incubation with TNFα was for an additional 4 and 3.5 hours, respectively. In FIG. 33, peptides were used at 10 μM and incubation with TNFα was for 4 hours. Apoptosis was measured by using the Cell Death Detection ELISA PLUS kit (Roche).
Series [7] deals with Neo 3DO cells (NF-κB-proficient). Briefly: Apoptosis assay (Cell Death Detection ELISA) with TAT peptides, Neo 3DO clones. The format is cell-based. As for the experimental part:
as §3
A-B, Apoptosis assays showing that peptide 1 effectively promotes killing by TNFα in IκBαM-Gadd45β and Neo 3DO clones, respectively. […] A-D, Values (expressed as arbitrary units) were obtained by subtracting background values with untreated cells from values with TNFα-treated cells, and represent the mean (+/−standard deviation) of three experiments.
Treatments were as follows: murine TNFα (Peprotech), 1,000 U/ml (FIG. 27) or 10 U/ml (FIG. 30); human TNFα (Peprotech), 2,000 U/ml; PMA plus ionomycin (Sigma), 100 ng/ml and 1 μM, respectively. […] Apoptosis was measured by using the Cell Death Detection ELISA^PLUS kit (Roche).
Treatments were as follows: murine TNFα (Peprotech), 1,000 U/ml, 10 U/ml, or 1,000 U/ml plus 0.3 μg/ml cycloheximide (CHX; FIG. 33); human TNFα (Peprotech), 2,000 U/ml; PMA plus ionomycin (Sigma), 100 ng/ml and 1 μM, respectively. […] Apoptosis was measured by using the Cell Death Detection ELISA PLUS kit (Roche). […]

On to “IALQIHFTLIQSFCCDND [69-86 amino acid region of Gadd45β, positions 69-86 of Gadd45β]”, for which the “binding to MKK7 in vitro” value in series [1] was “sufficient to bind to MKK7”.
Turning to “NH2-TGHVIAVKQMRRSGNKEENKRILMD-COOH (H-TGHVIAVKQMRRSGNKEENKRILMD-OH; listed as Homo sapiens) [peptide 2, aa 142-166 of MKK7/JNKK2]”, the “TNFα-induced killing in gadd45β−/− MEFs” value in series [2] is recorded as “retained (and, in fact, enhanced)”. Moreover, the “binding to GST-Gadd45β” value in series [3] is reported as “does not bind”. Moreover, the “cytokine (TNFα)-induced toxicity in wild-type fibroblasts” value in series [4] is listed as “enhanced”.
Consider “peptide 1: MKK7 peptide 132-156, Gadd45β-interacting, spans ATP-binding site K149; fused to cell-permeable HIV-TAT peptide for cell assays (GPVWKMRFRKTGHVIAVKQMRRSGN; also: fused to HIV-TAT peptide for cell assays; listed as Homo sapiens)”, for which, in series [2], the “TNFα-induced killing in gadd45β−/− MEFs” value is recorded as “completely insensitive”. The “prevention of MKK7 inhibition by Gadd45β” value in series [5] is recorded as “prevented MKK7 inhibition by Gadd45β”. Moreover, the “binding to GST-Gadd45β” value in series [3] is given as “sufficient to recapitulate this binding”. Also, the “basal toxicity in IκBαM-Gadd45β cells” value in series [6] (HIV-TAT-fused peptide, no TNFα) is on record as “marginal basal toxicity”. The “TNFα-induced killing of IκBαM-Gadd45β cells” value in series [6] is listed as “markedly increased susceptibility”. The “cytokine (TNFα)-induced toxicity in wild-type fibroblasts” value in series [4] is listed as “enhanced”. In series [7] (HIV-TAT-fused peptide, no TNFα), the “toxicity in untreated Neo cells” value was “minimal toxicity”. In series [7] (HIV-TAT-fused peptides 5 μM, 30 min pre-treatment, then TNFα), the “TNFα-induced killing of NF-κB-proficient (Neo) cells” value is listed as “promoted TNFα-induced killing”.
For the substance “peptide 7: MKK7 peptide 220-234, Gadd45β-interacting; fused to HIV-TAT peptide for cell assays (GKMTVAIVKALYYLK; also: fused to HIV-TAT peptide for cell assays; listed as Homo sapiens)”, the “prevention of MKK7 inhibition by Gadd45β” value in series [5] was “did not”. The “binding to GST-Gadd45β” value in series [3] is “sufficient to recapitulate this binding”. Further, the “TNFα-induced killing of IκBαM-Gadd45β cells” value in series [6] is “no effect”.
